Measured values reported in patent publication US20200199204A1 (UNITED STATES OF AMERICA AS REPRESENTED BY THE SECRETARY …, published 2020).

How the values were obtained:
Experiment in all cases: cell-based or functional assay
[1] = target: HIV-1 Env of ZM233.6 (HIV-1)
[2] = target: HIV-1 Env of ZM214.15 (HIV-1)
[3] = target: HIV-1 Env of Q461.e2 (HIV-1)
[4] = target: HIV-1 Env of CAAN.A2 (HIV-1)
[5] = target: HIV-1 Env of REJO.67 (HIV-1)
[6] = target: HIV-1 Env of C1080.c3 (HIV-1)
[7] = target: HIV-1 Env of SC422.8 (HIV-1)
[8] = target: HIV-1 Env of ZM197.7 (HIV-1)
[9] = target: HIV-1 Env of Q168.a2 (HIV-1)
[10] = target: HIV-1 Env of ZM249.1 (HIV-1)
[11] = target: HIV-1 Env of KER2008.12 (HIV-1)
[12] = target: HIV-1 Env of MB539.2B7 (HIV-1)
[13] = target: HIV-1 Env of CAP256.SU (HIV-1)
[14] = target: HIV-1 Env of 6535.3 (HIV-1)
[15] = target: HIV-1 Env of ZM53.12 (HIV-1)
[16] = target: HIV-1 Env of RW020.2 (HIV-1)
[17] = target: HIV-1 Env of 96ZM651.02 (HIV-1)
[18] = target: HIV-1 Env of 6405.v4.c34 (HIV-1)
[19] = target: HIV-1 Env of TRJO.58 (HIV-1)
[20] = target: HIV-1 Env of 0260.v5.c36 (HIV-1)
[21] = target: HIV-1 Env of 3016.V5.c36 (HIV-1)
[22] = target: HIV-1 Env of ZM109.4 (HIV-1)
[23] = target: HIV-1 Env of AC10.29 (HIV-1)
[24] = target: HIV-1 Env of Q842.d12 (HIV-1)
[25] = target: HIV-1 Env of KER2018.11 (HIV-1)
[26] = target: HIV-1 Env of Q23.17 (HIV-1)
[27] = target: HIV-1 Env of WITO.33 (HIV-1)
[28] = target: HIV-1 Env of 191821.E6.1 (HIV-1)
[29] = target: HIV-1 Env of RHPA.7 (HIV-1)
[30] = target: HIV-1 Env of MB201 (HIV-1)
[31] = target: HIV-1 Env of ZM135.10a (HIV-1)
[32] = target: HIV-1 Env of QH0692.42 (HIV-1)
[33] = target: HIV-1 Env of BG505.w6m (HIV-1)
[34] = target: HIV-1 Env of CM244.ec1 (HIV-1)
[35] = target: HIV-1 Env of DU172.17 (HIV-1)
[36] = target: HIV-1 Env of Q259.d2.17 (HIV-1)
[37] = target: HIV-1 Env of DU156.12 (HIV-1)
[38] = target: HIV-1 Env of THRO.18 (HIV-1)
[39] = target: HIV-1 Env of TRO.11 (HIV-1)
[40] = target: HIV-1 Env of DU422.01 (HIV-1)
[41] = target: HIV-1 Env of CAP210.E8 (HIV-1)
[42] = target: HIV-1 Env of Q769.d22 (HIV-1)
[43] = target: HIV-1 Env of CAP45.G3 (HIV-1)
[44] = target: HIV-1 Env of UG037.8 (HIV-1)
[45] = target: HIV-1 Env of CAP256.PI (HIV-1)
[46] = target: HIV-1 Env of CAP244.D3 (HIV-1)
[47] = target: HIV-1 Env of PVO.04 (HIV-1)

B1: CAP256-VRC26.09 (antibody, V domains shown)
VH: EVQLVESGGGVVQPGRSLTLSCAASQFNFANYGMHWVRQAPGKGLEWVASISNDGTKKYHEESVWGRFTISKDNSKSTLFLQMNSLRIEDTALYFCVKDQREDECEEWWSDYYDFGRELPCRKSRGLGLAGIFDMWGHGTMVTVSS
VL: QSALTQPPSVSAAPGQKVTISCSGNSSNIGNNFVSWYQQLPGTAPKLLIYENNRRPSGIPDRFSGSKSGTSATLAISGLQTGDEADYWCAVWGVRRGAGAVFGAGTKVTVLG
Q: Which results are given for B1?
A: neutralization IC50 [1]: 0.001 µg/mL; neutralization IC50 [2]: 0.333 µg/mL; neutralization IC50 [3]: 0.705 µg/mL; neutralization IC50 [4]: > 50 µg/mL; neutralization IC50 [5]: > 50 µg/mL; neutralization IC50 [6]: 0.019 µg/mL; neutralization IC50 [7]: > 50 µg/mL; neutralization IC50 [8]: 0.011 µg/mL; neutralization IC50 [9]: 0.181 µg/mL; neutralization IC50 [10]: 0.01 µg/mL; neutralization IC50 [11]: > 50 µg/mL; neutralization IC50 [12]: 40.7 µg/mL; neutralization IC50 [13]: 0.002 µg/mL; neutralization IC50 [14]: > 50 µg/mL; neutralization IC50 [15]: 0.002 µg/mL; neutralization IC50 [16]: > 50 µg/mL; neutralization IC50 [17]: 0.991 µg/mL; neutralization IC50 [18]: > 50 µg/mL; neutralization IC50 [19]: > 50 µg/mL; neutralization IC50 [20]: > 50 µg/mL; neutralization IC50 [21]: 0.004 µg/mL; neutralization IC50 [22]: > 50 µg/mL; neutralization IC50 [23]: > 50 µg/mL; neutralization IC50 [24]: 10.1 µg/mL; neutralization IC50 [25]: 0.002 µg/mL; neutralization IC50 [26]: 9.5 µg/mL; neutralization IC50 [27]: > 50 µg/mL; neutralization IC50 [28]: 0.054 µg/mL; neutralization IC50 [29]: > 50 µg/mL; neutralization IC50 [30]: > 50 µg/mL; neutralization IC50 [31]: > 50 µg/mL; neutralization IC50 [32]: > 50 µg/mL; neutralization IC50 [33]: 0.054 µg/mL; neutralization IC50 [34]: 0.105 µg/mL; neutralization IC50 [35]: > 50 µg/mL; neutralization IC50 [36]: 0.008 µg/mL; neutralization IC50 [37]: 0.016 µg/mL; neutralization IC50 [38]: > 50 µg/mL; neutralization IC50 [39]: > 50 µg/mL; neutralization IC50 [40]: 0.023 µg/mL; neutralization IC50 [41]: 0.002 µg/mL; neutralization IC50 [42]: > 50 µg/mL; neutralization IC50 [43]: 16 µg/mL; neutralization IC50 [44]: > 50 µg/mL; neutralization IC50 [45]: > 50 µg/mL; neutralization IC50 [46]: > 50 µg/mL; neutralization IC50 [47]: > 50 µg/mL
